Results reported in patent US20020082396A1 (published 2002).

T1: recombinant human IL-8 (Amersham) (human, UniProt P10145 28-99, limits assumed)
T1 construct: In the ELISA it is captured by goat anti-human IL-8 polyclonal antibody on the plate; In the neutrophil assay it is 125I-labelled and non-labelled IL-8 at 4 ng/ml each; also called human interleukin-8
T1 sequence (looked up): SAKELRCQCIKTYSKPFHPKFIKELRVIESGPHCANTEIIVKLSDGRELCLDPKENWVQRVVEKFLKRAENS


Target: T1, recombinant human IL-8 (Amersham)
Assay: ELISA: human IL-8 captured by goat anti-human IL-8 polyclonal antibody, COS culture medium serially diluted, AP-labelled anti-human IgG

binding result	Binder
no binding	antibody of the chimeric WS-4 L chain and version a of the reshaped human WS-4 H chain (chL/RVHa) (antibody, V domains shown, Human C kappa and human C gamma 1 regions (HEF-chWS4L-gk with HEF-RVHa-gg1), tested as COS cell culture medium) VH: EVQLLESGGGLVQPGGSLRLSCAASGFTFSDYYLSWVRQAQGKGLELVGLIRNKANGYTREYSASVKGRLTISREDSKNTLYLQMSSLKTEDLAVYYCARENYRYDVELAYWGQGTLVTVSS VL: DIQMTQSPASLSASVGETVTITCRASEIIYSYLAWYQQKQGKSPQLLVYNAKTLADGVSSRFSGSGSGTQFSLRISSLQPEDFGSYYCQHHFGFPRTFGGGTKLELK
no binding	reshaped human WS-4 antibody RVLa/RVHc (antibody, V domains shown, Human C kappa and human C gamma 1 regions, tested as COS cell culture medium; also called antibody having H chain version c) VH: EVQLLESGGGLVQPGGSLRLSCAASGFTFSDYYLSWVRQAPGKGLELVGLIRNKANGYTREYSASVKGRLTISREDSKNTLYLQMSSLKTEDLAVYYCARENYRYDVELAYWGQGTLVTVSS VL: DIQMTQSPSSLSASVGDRVTITCRASEIIYSYLAWYQQKPGKAPKLLIYNAKTLADGVPSRFSGSGSGTDFTFTISSLQPEDIATYYCQHHFGFPRTFGQGTKVEIK
